{"source": "paper PMC2837848", "about": "(Biochemistry, 2010)"}
{"biological_target": "the molecule itself", "assay": "SEC"}
{"protein": "Salmonella typhimurium QAPRTase R118A (enzyme) MPPRRYNPDDRRDALLERINLDIPAAVAQALREDLGGEVDAGNDITAQLLPADTQAHATVITREDGVFCGKRWVEEVFIQLAGDDVRLTWHVDDGDAIHANQTVFELNGPARVLLTGEATALNFVQTLSGVASEVRRYVGLLAGTQTQLLDTRKTLPGLRTALKYAVLCGGGANHRLGLTDAFLIKENHIIASGSVRQAVEKAFWLHPDVPVEVEVENLDELDDALKAGADIIMLDNFNTDQMREAVKRVNGQARLEVSGNVTAETLREFAETGVDFISVGALTKHVRALDLSMRFC", "stoichiometry N": 2}
{"protein": "Salmonella typhimurium QAPRTase R175A (enzyme) MPPRRYNPDDRRDALLERINLDIPAAVAQALREDLGGEVDAGNDITAQLLPADTQAHATVITREDGVFCGKRWVEEVFIQLAGDDVRLTWHVDDGDAIHANQTVFELNGPARVLLTGERTALNFVQTLSGVASEVRRYVGLLAGTQTQLLDTRKTLPGLRTALKYAVLCGGGANHALGLTDAFLIKENHIIASGSVRQAVEKAFWLHPDVPVEVEVENLDELDDALKAGADIIMLDNFNTDQMREAVKRVNGQARLEVSGNVTAETLREFAETGVDFISVGALTKHVRALDLSMRFC", "stoichiometry N": 2}
{"protein": "Salmonella typhimurium QAPRTase K185A (enzyme) MPPRRYNPDDRRDALLERINLDIPAAVAQALREDLGGEVDAGNDITAQLLPADTQAHATVITREDGVFCGKRWVEEVFIQLAGDDVRLTWHVDDGDAIHANQTVFELNGPARVLLTGERTALNFVQTLSGVASEVRRYVGLLAGTQTQLLDTRKTLPGLRTALKYAVLCGGGANHRLGLTDAFLIAENHIIASGSVRQAVEKAFWLHPDVPVEVEVENLDELDDALKAGADIIMLDNFNTDQMREAVKRVNGQARLEVSGNVTAETLREFAETGVDFISVGALTKHVRALDLSMRFC", "stoichiometry N": 2}
{"protein": "Salmonella typhimurium QAPRTase R152A (enzyme) MPPRRYNPDDRRDALLERINLDIPAAVAQALREDLGGEVDAGNDITAQLLPADTQAHATVITREDGVFCGKRWVEEVFIQLAGDDVRLTWHVDDGDAIHANQTVFELNGPARVLLTGERTALNFVQTLSGVASEVRRYVGLLAGTQTQLLDTAKTLPGLRTALKYAVLCGGGANHRLGLTDAFLIKENHIIASGSVRQAVEKAFWLHPDVPVEVEVENLDELDDALKAGADIIMLDNFNTDQMREAVKRVNGQARLEVSGNVTAETLREFAETGVDFISVGALTKHVRALDLSMRFC", "stoichiometry N": 2}
{"protein": "Salmonella typhimurium QAPRTase H188A (enzyme) MPPRRYNPDDRRDALLERINLDIPAAVAQALREDLGGEVDAGNDITAQLLPADTQAHATVITREDGVFCGKRWVEEVFIQLAGDDVRLTWHVDDGDAIHANQTVFELNGPARVLLTGERTALNFVQTLSGVASEVRRYVGLLAGTQTQLLDTRKTLPGLRTALKYAVLCGGGANHRLGLTDAFLIKENAIIASGSVRQAVEKAFWLHPDVPVEVEVENLDELDDALKAGADIIMLDNFNTDQMREAVKRVNGQARLEVSGNVTAETLREFAETGVDFISVGALTKHVRALDLSMRFC", "stoichiometry N": 2}
